Reference: paper PMC4065332, “PEX14 binding to Arabidopsis PEX5 has differential effects on PTS1 and PTS2 cargo occupancy of the receptor” (Febs Letters, 2014)
Where no end group is shown, it is not given here. lissamine = lissamine: fluorescent label (lissamine) on the peptide

Legend:
Settings in all cases: both partners purified
[1] = target: T1, PEX5 (340–728), termed PEX5C (Arabidopsis thaliana, UniProt Q9FMA3 340-728); assay: far-Western, overlay or dot blot; purified PEX5 constructs pipetted onto nitrocellulose, blocked in 3% BSA PBS-T, probed 1 h with peptide-HRP (200 nM) or PEX14N-HRP (50 nM), ECL; for unloading then incubated with PEX14N 0.2 μM 1 h and 2 μM 16 h at 4 °C
T1 construct: Arabidopsis PEX5 residues 340-728; holds six of the nine W-X3-F/Y motifs and the TPR domain; lacks residues 314-334; also called His6-PEX5C; AtPEX5C; source: E. coli, purified via IMAC
T1 sequence (looked up): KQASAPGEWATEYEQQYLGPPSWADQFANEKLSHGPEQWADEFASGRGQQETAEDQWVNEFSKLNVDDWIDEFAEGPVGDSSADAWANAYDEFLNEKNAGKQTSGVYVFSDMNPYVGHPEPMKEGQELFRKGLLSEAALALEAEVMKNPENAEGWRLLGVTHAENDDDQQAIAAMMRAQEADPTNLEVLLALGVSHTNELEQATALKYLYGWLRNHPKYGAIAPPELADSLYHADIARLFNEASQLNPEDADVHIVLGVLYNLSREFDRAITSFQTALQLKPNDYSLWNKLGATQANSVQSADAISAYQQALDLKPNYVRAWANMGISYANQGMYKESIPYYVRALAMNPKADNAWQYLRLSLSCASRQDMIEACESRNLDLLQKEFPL

[2] = target: T1, PEX5 (340–728), termed PEX5C; assay: fluorescence polarisation; fluorescence anisotropy; the same dilution series of PEX5C with lissamine-YQSKL (100 nM) after addition of PEX14N to a constant 1 μM; HEPES 20 mM, NaCl 150 mM, pH 7.5
[3] = target: T1, PEX5 (340–728), termed PEX5C; assay: fluorescence polarisation; fluorescence anisotropy; dilution series of PEX5C (1 μM–0.04 nM) with lissamine-YQSKL (100 nM); HEPES 20 mM, NaCl 150 mM, pH 7.5; fitted to a 1:1 binding model; without PEX14N

B1: HRP–YQSKL (CGGGYQSKL coupled to HRP–maleimide) (peptide)
peptide: C(HRP‑maleimide)GGGYQSKL
notes: generic PTS1 cargo peptide; also called HRP-SKL; peptide-HRP; source: synthetic peptide, coupled to HRP-maleimide (Sigma)
binding result [1]: binds

B2: lissamine-YQSKL (peptide)
peptide: lissamine-YQSKL
notes: canonical PTS1 cargo peptide; The name puts the lissamine before the peptide; also called lissamine-PTS1; PTS1
Kd [2]: 11.5 ± 3.4 nM | Kd [3]: 8.6 ± 4 nM
